# Data taken from patent publication US20230265179A1 (TWIST BIOSCIENCE, published 2023).
# T1: IL1RL1 (UniProt Q01638 19-328, limits assumed)
# T1 construct: SPR analyte
# T1 sequence (looked up): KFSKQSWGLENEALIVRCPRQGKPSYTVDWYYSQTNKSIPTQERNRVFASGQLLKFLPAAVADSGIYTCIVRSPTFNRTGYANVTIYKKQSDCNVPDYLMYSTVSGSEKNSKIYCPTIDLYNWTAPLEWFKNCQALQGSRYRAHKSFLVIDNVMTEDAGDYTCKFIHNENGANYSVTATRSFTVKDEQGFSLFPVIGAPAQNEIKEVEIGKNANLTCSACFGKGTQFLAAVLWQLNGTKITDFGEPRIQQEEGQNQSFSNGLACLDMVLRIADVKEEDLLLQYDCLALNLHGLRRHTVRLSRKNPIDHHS
# T2: CD40L over-expressed on Expi293 cells (UniProt P29965 1-261, limits assumed)
# T2 construct: whole, on cells; also called cytokine over-expressing Expi293 cells
# T2 sequence (looked up): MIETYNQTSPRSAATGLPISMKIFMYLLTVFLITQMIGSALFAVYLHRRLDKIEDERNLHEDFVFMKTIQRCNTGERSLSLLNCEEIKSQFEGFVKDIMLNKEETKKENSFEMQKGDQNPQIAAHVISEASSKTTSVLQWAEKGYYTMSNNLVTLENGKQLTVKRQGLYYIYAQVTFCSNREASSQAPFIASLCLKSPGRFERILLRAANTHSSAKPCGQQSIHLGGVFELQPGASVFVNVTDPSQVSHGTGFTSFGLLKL
# B1: IL1RL1-84 (Fc fusion, not shown: a dimerising Fc or GST)
# VHH: EVQLVESGGGLVQPGGSLRLSCAASGGIISNYHMGWFRQAPGKEREGVAAIYSDGSTYYADRVKGRFTISADNSKNTAYLQMNSLKPEDTAVYYCAARPVRVDDISLPVGFDWGQGTLVTVSS
# notes: VHH-Fc on IgG2 Fc
# B2: CD40L-64 (VHH)
# VHH: EVQLVESGGGLVQPGGSLRLSCAASGFTFSRYEMGWFRQAPGKEREMVAAIDDGGNTEYADSVKGRFTISADNSKNTAYLQMNSLKPEDTAVYYCASDHYDTDTKSDVYNWGQGTLVTVSS
# B3: CD40L-127 (VHH)
# VHH: EVQLVESGGGLVQPGGSLRLSCAASGFTFSRYEMGWFRQAPGKERELVASITNGGSTYYADSVKGRFTISADNSKNTAYLQMNSLKPEDTAVYYCASDHYDTDTKSDVYNWGQGTLVTVSS
# B4: CD40L-147 (VHH)
# VHH: EVQLVESGGGLVQPGGSLRLSCAASGFTFSRYEMGWFRQAPGKEREFVATITEGGARNYADSVKGRFTISADNSKNTAYLQMNSLKPEDTAVYYCASDHYDTDTKSDVYNWGQGTLVTVSS
# B5: CD40L-128 (VHH)
# VHH: EVQLVESGGGLVQPGGSLRLSCAASGLTFGTHVMGWFRQAPGKEREFVASIDWSGRSTYYADSVKGRFTISADNSKNTAYLQMNSLKPEDTAVYYCAADVWGLGYDWGQGTLVTVSS
# B6: CD40L-88 (VHH)
# VHH: EVQLVESGGGLVQPGGSLRLSCAASGFTFDDYDMGWFRQAPGKEREFVAAIDWSGGSTYYADSVKGRFTISADNSKNTAYLQMNSLKPEDTAVYYCASDHYDTDTKSDVYNWGQGTLVTVSS
# B7: CD40L-85 (VHH)
# VHH: EVQLVESGGGLVQPGGSLRLSCAASGLNLSRLDMGWFRQAPGKEREFVAAVSGSGDDTYYADSVKGRFTISADNSKNTAYLQMNSLKPEDTAVYYCASDHYDTDTKSDVYNWGQGTLVTVSS
# B8: CD40L-86 (VHH)
# VHH: EVQLVESGGGLVQPGGSLRLSCAASGRTLTNYDMGWFRQAPGKEREFVAVINSGGGSTQYADSVKGRFTISADNSKNTAYLQMNSLKPEDTAVYYCASDHYDTDTKSDVYNWGQGTLVTVSS
# B9: CD40L-87 (VHH)
# VHH: EVQLVESGGGLVQPGGSLRLSCAASGFTFDDYDMGWFRQAPGKEREFVAAISMSGDDAAYADSVKGRFTISADNSKNTAYLQMNSLKPEDTAVYYCASDHYDTDTKSDVYNWGQGTLVTVSS
# B10: CD40L-92 (VHH)
# VHH: EVQLVESGGGLVQPGGSLRLSCAASGFTFDDSDMGWFRQAPGKEREFVAAIDASGGFTEYADSVKGRFTISADNSKNTAYLQMNSLKPEDTAVYYCASDHYDTDTKSDVYNWGQGTLVTVSS
# B11: CD40L-131 (VHH)
# VHH: EVQLVESGGGLVQPGGSLRLSCAASGFTYGNYDMGWFRQAPGKEREFVAAIYPSGRNAYYADSVKGRFTISADNSKNTAYLQMNSLKPEDTAVYYCASDHYDTDTKSDVYNWGQGTLVTVSS
# B12: CD40L-136 (VHH)
# VHH: EVQLVESGGGLVQPGGSLRLSCAASGFTFSDYDMGWFRQAPGKEREFVAAISMSGEDAAYADSVKGRFTISADNSKNTAYLQMNSLKPEDTAVYYCASDHYDTDTKSDVYNWGQGTLVTVSS
# B13: CD40L-138 (VHH)
# VHH: EVQLVESGGGLVQPGGSLRLSCAASGFTFGNYDMGWFRQAPGKEREFVAVIDTNGGLIAYADSVKGRFTISADNSKNTAYLQMNSLKPEDTAVYYCASDHYDTDTKSDVYNWGQGTLVTVSS
# B14: CD40L-143 (VHH)
# VHH: EVQLVESGGGLVQPGGSLRLSCAASGRTFSSYDMGWFRQAPGKEREFVAAIDASGGFTEYADSVKGRFTISADNSKNTAYLQMNSLKPEDTAVYYCASDHYDTDTKSDVYNWGQGTLVTVSS
# B15: CD40L-148 (VHH)
# VHH: EVQLVESGGGLVQPGGSLRLSCAASGFTFGNYDMGWFRQAPGKERELVAAISMSGDDAAYADSVKGRFTISADNSKNTAYLQMNSLKPEDTAVYYCASDHYDTDTKSDVYNWGQGTLVTVSS
# B16: CD40L-71 (VHH)
# VHH: EVQLVESGGGLVQPGGSLRLSCAASGSIDNIHAMGWFRQAPGKERKFVAVIYSSDGSTLYADSVKGRFTISADNSKNTAYLQMNSLKPEDTAVYYCAAEPYGSGSSLMSEYDWGQGTLVTVSS
# B17: CD40L-78 (VHH)
# VHH: EVQLVESGGGLVQPGGSLRLSCAASGGTFSVFAMGWFRQAPGKEREFVAVIYSSDGSTLYADSVKGRFTISADNSKNTAYLQMNSLKPEDTAVYYCAAEPYGSGSSLISEYDWGQGTLVTVSS
# B18: CD40L-81 (VHH)
# VHH: EVQLVESGGGLVQPGGSLRLSCAASGGIFGINAMGWFRQAPGKEREFIAVIYWRDGSSLYADSVKGRFTISADNSKNTAYLQMNSLKPEDTAVYYCAAEPYGSGSSLISEYDWGQGTLVTVSS
# B19: CD40L-83 (VHH)
# VHH: EVQLVESGGGLVQPGGSLRLSCAASGRTSNIYAMGWFRQAPGKEREFIAVIYWRDGSSLYADSVKGRFTISADNSKNTAYLQMNSLKPEDTAVYYCAAEPYGSGSSLISEYDWGQGTLVTVSS
# B20: CD40L-97 (VHH)
# VHH: EVQLVESGGGLVQPGGSLRLSCAASGGTFGHYAMGWFRQAPGKEREFVAVIYSSDGSTLYADSVKGRFTISADNSKNTAYLQMNSLKPEDTAVYYCAAEPYGSGSSLISEYDWGQGTLVTVSS
# B21: CD40L-109 (VHH)
# VHH: EVQLVESGGGLVQPGGSLRLSCAASGSILSINAMGWFRQAPGKEREFVAVIYSSDGSTLYADSVKGRFTISADNSKNTAYLQMNSLKPEDTAVYYCAAEPYGSGSSLMSEYDWGQGTLVTVSS
# B22: CD40L-110 (VHH)
# VHH: EVQLVESGGGLVQPGGSLRLSCAASGSSGVINAMGWFRQAPGKEREFIAVIYWRDGSSLYADSVKGRFTISADNSKNTAYLQMNSLKPEDTAVYYCAAEPYGSGSSLISEYDWGQGTLVTVSS
# B23: CD40L-117 (VHH)
# VHH: EVQLVESGGGLVQPGGSLRLSCAASGFIGNYHAMGWFRQAPGKEREFIAVIYWRDGSSLYADSVKGRFTISADNSKNTAYLQMNSLKPEDTAVYYCAAEPYGSGSSLISEYDWGQGTLVTVSS
# B24: CD40L-121 (VHH)
# VHH: EVQLVESGGGLVQPGGSLRLSCAASGRTFSTYAMGWFRQAPGKEREFVAVIYSSDGSTLYADSVKGRFTISADNSKNTAYLQMNSLKPEDTAVYYCAAEPYGSGSSLISEYDWGQGTLVTVSS
# B25: CD40L-123 (VHH)
# VHH: EVQLVESGGGLVQPGGSLRLSCAASGRTFSIYAMGWFRQAPGKEREFVAVIYSSDGSTLYADSVKGRFTISADNSKNTAYLQMNSLKPEDTAVYYCAAEPYGSGSSLMSEYDWGQGTLVTVSS
# B26: CD40L-132 (VHH)
# VHH: EVQLVESGGGLVQPGGSLRLSCAASGSIDRINAMGWFRQAPGKEREFIAVIYWRDGSSLYADSVKGRFTISADNSKNTAYLQMNSLKPEDTAVYYCAAEPYGSGSSLISEYDWGQGTLVTVSS
# B27: CD40L-134 (VHH)
# VHH: EVQLVESGGGLVQPGGSLRLSCAASGFTFSRYEMGWFRQAPGKEREFVATITEGGARNYADSVKGRFTISADNSKNTAYLQMNSLKPEDTAVYYCAAEIGYYSGGTYFSSEAWGQGTLVTVSS
# B28: CD40L-137 (VHH)
# VHH: EVQLVESGGGLVQPGGSLRLSCAASGFTFSRYEMGWFRQAPGKEREFVAAIDDGGNTEYADSVKGRFTISADNSKNTAYLQMNSLKPEDTAVYYCAAVYVSTWGNGYDWGQGTLVTVSS
# B29: CD40L-140 (VHH)
# VHH: EVQLVESGGGLVQPGGSLRLSCAASGNIFSHNAMGWFRQAPGKEREFVASMRGSGSTVYADSVKGRFTISADNSKNTAYLQMNSLKPEDTAVYYCAKSVYGDYIFDYWGQGTLVTVSS
# Target: T1, IL1RL1
# Experiment: SPR (Carterra LSA), antibody amine-coupled, 1:1 model;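 also: HC30M sensor chip at 25 °C in HBS-TE, analyte at rising concentrations in buffer containing 0.5 mg/mL BSA, 5 min association then 15 min dissociation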
Binder,Kd [nM],koff [s⁻¹],kon [M⁻¹ s⁻¹]
B1,≤ 0.0673,≤ 1e-05,149000

# Target: T2, CD40L over-expressed on Expi293 cells
# Experiment: flow cytometry, 100 nM antibody, CD40L-Expi293 vs parent Expi293 cells;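 also: ratio is the mean fluorescence intensity on CD40L-overexpressing Expi293 cells divided by the mean fluorescence intensity on parental Expi293 cells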
# Description: All incubations and washes were in buffer containing PBS+1% BSA. MFI Ratio is defined by the mean fluorescence intensity (MFI) of the cytokine over-expressing Expi293 cell over the Expi293 parent cell. […] EC50 was calculated in GraphPad Prism.
row,Binder,100 nM FACS (MFI Ratio) [ratio]
1,B2,19.4
2,B3,11.9
3,B4,7.4
4,B5,1.6
5,B6,26
6,B7,42.6
7,B8,8.9
8,B9,18.3
9,B10,6.6
10,B11,12.1
11,B12,22.4
12,B13,5.1
13,B14,8.3
14,B15,12.5
15,B16,5.9
16,B17,8.2
17,B18,6
18,B19,15.7
19,B20,8.9
20,B21,4.7
21,B22,4.9
22,B23,3.6
23,B24,6.9
24,B25,6.7
25,B26,3.9
26,B27,7.3
27,B28,7.7
28,B29,4.3
